Patent US20190233495A1 (Sanofi, published 2019)
Non-standard residues stand in square brackets, D forms with d. 1Nal = N[C@@H](Cc1cccc2ccccc12)C(=O)O; Nle = CCCC[C@H](N)C(=O)O; Aib = CC(C)(N)C(=O)O

T1: RXFP1 receptor (UniProt Q9HBX9 1-757, limits assumed)
T1 sequence (looked up): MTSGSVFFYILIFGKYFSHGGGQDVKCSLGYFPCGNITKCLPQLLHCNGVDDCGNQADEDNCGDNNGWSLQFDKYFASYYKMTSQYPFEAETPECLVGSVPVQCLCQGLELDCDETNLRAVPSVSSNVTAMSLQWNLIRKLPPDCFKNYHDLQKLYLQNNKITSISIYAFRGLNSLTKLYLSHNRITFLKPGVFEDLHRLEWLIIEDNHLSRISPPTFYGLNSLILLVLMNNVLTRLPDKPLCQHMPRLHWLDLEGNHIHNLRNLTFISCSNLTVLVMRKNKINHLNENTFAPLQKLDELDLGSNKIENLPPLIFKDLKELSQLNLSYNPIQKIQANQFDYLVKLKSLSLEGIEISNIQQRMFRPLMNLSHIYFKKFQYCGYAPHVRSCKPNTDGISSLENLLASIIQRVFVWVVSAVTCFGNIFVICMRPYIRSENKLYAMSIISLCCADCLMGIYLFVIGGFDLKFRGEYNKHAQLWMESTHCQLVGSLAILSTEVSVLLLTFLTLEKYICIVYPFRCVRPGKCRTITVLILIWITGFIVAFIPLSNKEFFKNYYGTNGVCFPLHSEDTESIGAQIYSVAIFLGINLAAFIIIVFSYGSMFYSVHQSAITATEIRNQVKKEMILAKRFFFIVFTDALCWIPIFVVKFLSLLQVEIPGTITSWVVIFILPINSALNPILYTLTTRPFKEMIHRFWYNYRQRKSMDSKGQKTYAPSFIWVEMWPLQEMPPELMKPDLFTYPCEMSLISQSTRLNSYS

B1: SEQ ID NO: 38 (peptide)
peptide: Ac-LEGREKVRAQI[Aib][Aib]EGMSKWSKR-NH2
SMILES: CC[C@H](C)[C@H](NC(=O)[C@H](CCC(N)=O)NC(=O)[C@H](C)NC(=O)[C@H](CCCNC(=N)N)NC(=O)[C@@H](NC(=O)[C@H](CCCCN)NC(=O)[C@H](CCC(=O)O)NC(=O)[C@H](CCCNC(=N)N)NC(=O)CNC(=O)[C@H](CCC(=O)O)NC(=O)[C@H](CC(C)C)NC(C)=O)C(C)C)C(=O)NC(C)(C)C(=O)NC(C)(C)C(=O)N[C@@H](CCC(=O)O)C(=O)NCC(=O)N[C@@H](CCSC)C(=O)N[C@@H](CO)C(=O)N[C@@H](CCCCN)C(=O)N[C@@H](Cc1c[nH]c2ccccc12)C(=O)N[C@@H](CO)C(=O)N[C@@H](CCCCN)C(=O)N[C@@H](CCCNC(=N)N)C(N)=O
B2: SEQ ID NO: 41 (peptide)
peptide: Ac-LEGREKVRAQI[Aib][Aib]EGMSTWS[Aib]R-NH2
SMILES: CC[C@H](C)[C@H](NC(=O)[C@H](CCC(N)=O)NC(=O)[C@H](C)NC(=O)[C@H](CCCNC(=N)N)NC(=O)[C@@H](NC(=O)[C@H](CCCCN)NC(=O)[C@H](CCC(=O)O)NC(=O)[C@H](CCCNC(=N)N)NC(=O)CNC(=O)[C@H](CCC(=O)O)NC(=O)[C@H](CC(C)C)NC(C)=O)C(C)C)C(=O)NC(C)(C)C(=O)NC(C)(C)C(=O)N[C@@H](CCC(=O)O)C(=O)NCC(=O)N[C@@H](CCSC)C(=O)N[C@@H](CO)C(=O)N[C@H](C(=O)N[C@@H](Cc1c[nH]c2ccccc12)C(=O)N[C@@H](CO)C(=O)NC(C)(C)C(=O)N[C@@H](CCCNC(=N)N)C(N)=O)[C@@H](C)O
B3: SEQ ID NO: 37 (peptide)
peptide: Ac-LEGREKVRAQI[Aib][Aib]EG[Nle]ST[1Nal]SKR-NH2
SMILES: CCCC[C@H](NC(=O)CNC(=O)[C@H](CCC(=O)O)NC(=O)C(C)(C)NC(=O)C(C)(C)NC(=O)[C@@H](NC(=O)[C@H](CCC(N)=O)NC(=O)[C@H](C)NC(=O)[C@H](CCCNC(=N)N)NC(=O)[C@@H](NC(=O)[C@H](CCCCN)NC(=O)[C@H](CCC(=O)O)NC(=O)[C@H](CCCNC(=N)N)NC(=O)CNC(=O)[C@H](CCC(=O)O)NC(=O)[C@H](CC(C)C)NC(C)=O)C(C)C)[C@@H](C)CC)C(=O)N[C@@H](CO)C(=O)N[C@H](C(=O)N[C@@H](Cc1cccc2ccccc12)C(=O)N[C@@H](CO)C(=O)N[C@@H](CCCCN)C(=O)N[C@@H](CCCNC(=N)N)C(N)=O)[C@@H](C)O
B4: SEQ ID NO: 42 (peptide)
peptide: Ac-LEGREKVR[Aib]QI[Aib][Aib]EGMSTWS[Aib]R-NH2
SMILES: CC[C@H](C)[C@H](NC(=O)[C@H](CCC(N)=O)NC(=O)C(C)(C)NC(=O)[C@H](CCCNC(=N)N)NC(=O)[C@@H](NC(=O)[C@H](CCCCN)NC(=O)[C@H](CCC(=O)O)NC(=O)[C@H](CCCNC(=N)N)NC(=O)CNC(=O)[C@H](CCC(=O)O)NC(=O)[C@H](CC(C)C)NC(C)=O)C(C)C)C(=O)NC(C)(C)C(=O)NC(C)(C)C(=O)N[C@@H](CCC(=O)O)C(=O)NCC(=O)N[C@@H](CCSC)C(=O)N[C@@H](CO)C(=O)N[C@H](C(=O)N[C@@H](Cc1c[nH]c2ccccc12)C(=O)N[C@@H](CO)C(=O)NC(C)(C)C(=O)N[C@@H](CCCNC(=N)N)C(N)=O)[C@@H](C)O
B5: SEQ ID NO: 43 (peptide)
peptide: Ac-LEGREKVRA[Aib]I[Aib][Aib]EGMSTWS[Aib]R-NH2
SMILES: CC[C@H](C)[C@H](NC(=O)C(C)(C)NC(=O)[C@H](C)NC(=O)[C@H](CCCNC(=N)N)NC(=O)[C@@H](NC(=O)[C@H](CCCCN)NC(=O)[C@H](CCC(=O)O)NC(=O)[C@H](CCCNC(=N)N)NC(=O)CNC(=O)[C@H](CCC(=O)O)NC(=O)[C@H](CC(C)C)NC(C)=O)C(C)C)C(=O)NC(C)(C)C(=O)NC(C)(C)C(=O)N[C@@H](CCC(=O)O)C(=O)NCC(=O)N[C@@H](CCSC)C(=O)N[C@@H](CO)C(=O)N[C@H](C(=O)N[C@@H](Cc1c[nH]c2ccccc12)C(=O)N[C@@H](CO)C(=O)NC(C)(C)C(=O)N[C@@H](CCCNC(=N)N)C(N)=O)[C@@H](C)O
B6: SEQ ID NO: 4 (peptide)
peptide: Ac-LEGREKVRAQI[Aib][Aib]EGMSTWS[Aib]RKK-NH2
SMILES: CC[C@H](C)[C@H](NC(=O)[C@H](CCC(N)=O)NC(=O)[C@H](C)NC(=O)[C@H](CCCNC(=N)N)NC(=O)[C@@H](NC(=O)[C@H](CCCCN)NC(=O)[C@H](CCC(=O)O)NC(=O)[C@H](CCCNC(=N)N)NC(=O)CNC(=O)[C@H](CCC(=O)O)NC(=O)[C@H](CC(C)C)NC(C)=O)C(C)C)C(=O)NC(C)(C)C(=O)NC(C)(C)C(=O)N[C@@H](CCC(=O)O)C(=O)NCC(=O)N[C@@H](CCSC)C(=O)N[C@@H](CO)C(=O)N[C@H](C(=O)N[C@@H](Cc1c[nH]c2ccccc12)C(=O)N[C@@H](CO)C(=O)NC(C)(C)C(=O)N[C@@H](CCCNC(=N)N)C(=O)N[C@@H](CCCCN)C(=O)N[C@@H](CCCCN)C(N)=O)[C@@H](C)O
B7: SEQ ID NO: 36 (peptide)
peptide: Ac-LEGREKVRAQI[Aib][Aib]EG[Nle]SK[1Nal]SKR-NH2
SMILES: CCCC[C@H](NC(=O)CNC(=O)[C@H](CCC(=O)O)NC(=O)C(C)(C)NC(=O)C(C)(C)NC(=O)[C@@H](NC(=O)[C@H](CCC(N)=O)NC(=O)[C@H](C)NC(=O)[C@H](CCCNC(=N)N)NC(=O)[C@@H](NC(=O)[C@H](CCCCN)NC(=O)[C@H](CCC(=O)O)NC(=O)[C@H](CCCNC(=N)N)NC(=O)CNC(=O)[C@H](CCC(=O)O)NC(=O)[C@H](CC(C)C)NC(C)=O)C(C)C)[C@@H](C)CC)C(=O)N[C@@H](CO)C(=O)N[C@@H](CCCCN)C(=O)N[C@@H](Cc1cccc2ccccc12)C(=O)N[C@@H](CO)C(=O)N[C@@H](CCCCN)C(=O)N[C@@H](CCCNC(=N)N)C(N)=O
B8: SEQ ID NO: 40 (peptide)
peptide: Ac-LEGREKVRAQI[Aib][Aib]EGMSTWSKR-NH2
SMILES: CC[C@H](C)[C@H](NC(=O)[C@H](CCC(N)=O)NC(=O)[C@H](C)NC(=O)[C@H](CCCNC(=N)N)NC(=O)[C@@H](NC(=O)[C@H](CCCCN)NC(=O)[C@H](CCC(=O)O)NC(=O)[C@H](CCCNC(=N)N)NC(=O)CNC(=O)[C@H](CCC(=O)O)NC(=O)[C@H](CC(C)C)NC(C)=O)C(C)C)C(=O)NC(C)(C)C(=O)NC(C)(C)C(=O)N[C@@H](CCC(=O)O)C(=O)NCC(=O)N[C@@H](CCSC)C(=O)N[C@@H](CO)C(=O)N[C@H](C(=O)N[C@@H](Cc1c[nH]c2ccccc12)C(=O)N[C@@H](CO)C(=O)N[C@@H](CCCCN)C(=O)N[C@@H](CCCNC(=N)N)C(N)=O)[C@@H](C)O

biological target: T1, RXFP1 receptor; experiment: cell-based or functional assay

Row | Binder | cAMP assay in OVCAR 5 cells EC50 [nM] | cAMP assay in OVCAR 5 cells Emax [%]
1 | B1 | 10.7 | 102
2 | B2 | 45 | 106
3 | B3 | 52.4 | 104
4 | B4 | 251 | 104
5 | B5 | 190 | 104
6 | B6 | 14.1 | 99
7 | B7 | 127 | 103
8 | B8 | 31.9 | 103
